Source: patent US20090175847A1

Columns and labels:
[1] = target: Aβ(1-42) globulomer (human) (UniProt P05067); assay: dot blot densitometry; antigen: Aβ(1-42) globulomer
[2] = target: Aβ(20-42) globulomer (human); assay: dot blot densitometry; antigen: Aβ(20-42) globulomer (the reference of the ratio)
Aβ(1-42) fibrils (human) = Aβ(1-42) fibrils (human) (UniProt P05067); assay: dot blot densitometry; antigen: Aβ(1-42) fibril; the dot is read as a thousands separator
Aβ(1-40) monomer (human) = assay: dot blot densitometry; antigen: Aβ(1-40) monomer, 0.1% NH4OH; the dot is read as a thousands separator
Aβ(1-42) monomer (human) = assay: dot blot densitometry; antigen: Aβ(1-42) monomer, 0.1% NH4OH; the dot is read as a thousands separator (no dot in column 1 of panel A)
Sequence of Aβ(1-42) monomer (human) (peptide, as listed by the source): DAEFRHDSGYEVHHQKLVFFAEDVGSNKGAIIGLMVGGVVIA

Sequence of Aβ(20-42) globulomer (human) (peptide, as listed by the source): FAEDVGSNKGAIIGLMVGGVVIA
Sequence of Aβ(1-40) monomer (human) (peptide, as listed by the source): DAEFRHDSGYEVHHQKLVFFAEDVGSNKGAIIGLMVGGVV

relation between recognition of Aβ(20-42) globulomer and the respective Aβ form [1]: 17
relation between recognition of Aβ(20-42) globulomer and the respective Aβ form [2]: 1
relation between recognition of Aβ(20-42) globulomer and the respective Aβ form (Aβ(1-42) fibrils (human)): > 10000
relation between recognition of Aβ(20-42) globulomer and the respective Aβ form (Aβ(1-40) monomer (human)): > 10000
relation between recognition of Aβ(20-42) globulomer and the respective Aβ form (Aβ(1-42) monomer (human)): 10400
B1: humanized antibody 5F7hum8 (antibody, IgG1, V domains shown)
VH: EVQLVQSGAEVKKPGASVKVSCKASGYTFTTFYIHWVRQAPGQGLEWIGMIGPGSGNTYYNEMFKDKATLTVDTSTSTAYMELSSLRSEDTAVYYCARAKSARAAWFAYWGQGTLVTVSS
VL: DIVMTQSPLSLPVTPGEPASISCRSSQSVVQSNGNTYLEWYLQKPGQSPQLLIYKVSNRFSGVPDRFSGSGSGTDFTLKISRVEAEDVGVYYCFQGSHVPPTFGGGTKVEIKR
